Measurements as given in paper PMC2743556.

Target: D-galactose receptor (human (endogenous in SHIN3))
Experiment: flow cytometry on cells

- mean value of fluorescence (FACS flow cytometry): 10.9
Substance: TAMRA conjugated avidin (from UniProt P02701 25-152) (ligand)
